# B1: WT His6-MutL, full length [E. coli] / WT MutS, full length [E. coli] (parent)
# chain 1: MPIQVLPPQLANQIAAGEVVERPASVVKELVENSLDAGATRIDIDIERGGAKLIRIRDNGCGIKKDELALALARHATSKIASLDDLEAIISLGFRGEALASISSVSRLTLTSRTAEQQEAWQAYAEGRDMNVTVKPAAHPVGTTLEVLDLFYNTPARRKFLRTEKTEFNHIDEIIRRIALARFDVTINLSHNGKIVRQYRAVPEGGQKERRLGAICGTAFLEQALAIEWQHGDLTLRGWVADPNHTTPALAEIQYCYVNGRMMRDRLINHAIRQACEDKLGADQQPAFVLYLEIDPHQVDVNVHPAKHEVRFHQSRLVHDFIYQGVLSVLQQQLETPLPLDDEPQPAPRSIPENRVAAGRNHFAEPAAREPVAPRYTPAPASGSRPAAPWPNAQPGYQKQQGEVYRQLLQTPAPMQKLKAPEPQEPALAANSQSFGRVLTIVHSDCALLERDGNISLLSLPVAERWLRQAQLTPGEAPVCAQPLLIPLRLKVSAEEKSALEKAQSALAELGIDFQSDAQHVTIRAVPLPLRQQNLQILIPELIGYLAKQSVFEPGNIAQWIARNLMSEHAQWSMAQAITLLADVERLCPQLVKTPPGGLLQSVDLHPAIKALKDE
# chain 2: MSAIENFDAHTPMMQQYLRLKAQHPEILLFYRMGDFYELFYDDAKRASQLLDISLTKRGASAGEPIPMAGIPYHAVENYLAKLVNQGESVAICEQIGDPATSKGPVERKVVRIVTPGTISDEALLQERQDNLLAAIWQDSKGFGYATLDISSGRFRLSEPADRETMAAELQRTNPAELLYAEDFAEMSLIEGRRGLRRRPLWEFEIDTARQQLNLQFGTRDLVGFGVENAPRGLCAAGCLLQYAKDTQRTTLPHIRSITMEREQDSIIMDAATRRNLEITQNLAGGAENTLASVLDCTVTPMGSRMLKRWLHMPVRDTRVLLERQQTIGALQDFTAGLQPVLRQVGDLERILARLALRTARPRDLARMRHAFQQLPELRAQLETVDSAPVQALREKMGEFAELRDLLERAIIDTPPVLVRDGGVIASGYNEELDEWRALADGATDYLERLEVRERERTGLDTLKVGFNAVHGYYIQISRGQSHLAPINYMRRQTLKNAERYIIPELKEYEDKVLTSKGKALALEKQLYEELFDLLLPHLEALQQSASALAELDVLVNLAERAYTLNYTCPTFIDKPGIRITEGRHPVVEQVLNEPFIANPLNLSPQRRMLIITGPNMGGKSTYMRQTALIALMAYIGSYVPAQKVEIGPIDRIFTRVGAADDLASGRSTFMVEMTETANILHNATEYSLVLMDEIGRGTSTYDGLSLAWACAENLANKIKALTLFATHYFELTQLPEKMEGVANVHLDALEHGDTIAFMHSVQDGAASKSYGLAVAALAGVPKEVIKRARQKLRELESISPNAAATQVDGTQMSLLSVPEETSPAVEALENLDPDSLTPRQALEWIYRLKSLV
# Variants of: B1
# Assay: SPR
# Settings: with WT MutS, MutS sliding clamps pre-formed on 100-bp end-blocked DNA in the presence of ATP, value read at the highest MutL concentration (last point, est. about 5,000 …), read off a plot
row,Variant,response
1,chain 1 A138E,11%
2,chain 1 A138E H139A,3%
3,chain 1 R55D R57D A138E H139A,-1%

# More lines, now with the values ahead:
row,response,Variant
1,-7%,chain 1 R55D R57D
2,13%,chain 1 K52C

# Same assay, conditions: with WT His6-MutL, MutS sliding clamps pre-formed on 100-bp end-blocked DNA in the presence of ATP, value read at the highest MutL concentration (last point, est. about 5,000 …), read off a plot
row,response,Variant
1,8%,chain 2 P595A I597A M759D

# Reference: article PMC4521584
